From US20140357838A1, “N-Terminally Modified Insulin Derivatives” (Novo Nordisk A/S, priority 2011, published 2014) come the findings set out here.

Series [1] can be described thus: Chemical stability of insulin derivatives in 2 mM phosphate (SEC-HPLC and RP-HPLC). Type of series: physicochemical. The note with it: 4 weeks 37° C. minus 5° C. start sample; for Chemical degradation (%) (4 weeks 37° C.- 0 weeks 5° C.): pH 7.5, RP-HPLC; for HMWP Formation (%) (4 weeks 37° C.- 0 weeks 5° C.): pH 7.5, SEC-HPLC. The method, then: Chemical stability of an insulin derivative is assessed after incubating insulin derivative in 2 mM phosphate, pH=7.5 at 37° C. for up to 8 weeks. Formation of high molecular weight products (HMWP) is determined by SEC HPLC analysis after 0, 2, 4 and optionally 8 weeks. The results of the SEC method are given as a difference between HMWP formation at 37° C. and 5° C. start sample as a percentage of total absorbance at 215 nm. Chemical degradation products are determined by RP HPLC analysis after 0, 2, 4 and optionally 8 weeks. The results of the RP method are given as a difference between chemical degradation observed at 37° C. and 5° C. start sample as a percentage of total absorbance at 215 nm.
• Solvent: 500 mM NaCl, 10 mM NaH2PO4, 5 mM H3PO4, 50% (v/v) 2-propanol • Flow: 0.5 ml/min • Run time: 30 min • UV Detection: 215 nm • Column: Insulin HMWP column from Waters 7.8×300 mm • Temperature: 50° C.
• Solvent A: 0.09M phosphate buffer pH 3.6 (di-ammoniumhydrogenphosphate), 10% MeCN (v/v) • Solvent B: 80% MeCN (v/v %) • Flow: 0.3 ml/min • Runtime: 33 min • UV Detection: 215 nm • Column: Waters Acquity BEH130 C18 Column 1.7 μm, 150×2.1 mm • Temperature: 50° C. • Gradient: […]

In series [2] the target is T1, human insulin receptor (Homo sapiens, UniProt P06213). Put plainly: Insulin receptor affinity, SPA antibody capture assay (0% HSA). It is filed as binding. The note with it: relative to the affinity of human insulin. The method, then: (§1) SPA-PVT antibody-binding beads, anti-mouse reagent (Amersham Bio-sciences, Cat No. PRNQ0017) are mixed with 25 ml of binding buffer (100 mM HEPES pH 7.8; 100 mM sodium chloride, 10 mM MgSO4, 0.025% Tween-20). […] A total of 100 μl reagent mix is then added to each well in the Packard Optiplate and a dilution series of the N-terminally modified insulin is made in the Optiplate from appropriate samples. The samples are then incubated for 16 hours while gently shaken. The phases are the then separated by centrifugation for 1 min and the plates counted in a Topcounter.

A short description of series [3]: Hydrophobicity by isocratic reverse phase HPLC. Type of series: physicochemical. The note with it: k'rel, isocratic RP-HPLC, pH 7.3, human insulin = 1. The method, then:
The hydrophobicity of an N-terminally modified insulin is found by reverse phase HPLC run under isocratic conditions. […] The hydrophobicity, k′rel, is calculated as: k′relderiv=((tderiv−t0)(tref−t0)*k′relref. Using HI as reference: k′relref=k′relHI=1. The void time of the HPLC system, t0, is determined by injecting 5 μl of 0.1 mM NaNO3. Running conditions:
Column: Lichrosorb RP-C18, 5 μm, 4×250 mm
Buffer A: 0.1 M natrium phosphate pH 7.3, 10 vol % CH3CN
After running an initial gradient, the isocratic level for running the derivative and reference (for example HI) is chosen, and the elution times of the derivative and reference under isocratic conditions are used in the above equation to calculate k′relderiv.

The target of series [4] is T1, human insulin receptor. Description: Insulin receptor affinity, SPA assay with […] HSA in binding buffer. The note with it: relative to the affinity of human insulin. The method, then: as §1

Starred links: 1 amine or outer side, 2 acyl side, 3 side chain; linkers in the order of their positions; H or OH if unused. Positions of bridges follow the written chain, without caps; N, C: chain ends. Groups on a side chain read outwards from the residue. Chains are numbered I, II in the order given. No end group written: not given here. *: point of attachment. Phe(Nα-CONH2) = NC(=O)N[C@@H](Cc1ccccc1)C(=O)*; C20 diacid = O=C(O)CCCCCCCCCCCCCCCCCCC(=O)*; C18 diacid = O=C(O)CCCCCCCCCCCCCCCCC(=O)*; NMe2Phe = CN(C)[C@@H](Cc1ccccc1)C(=O)*; γGlu = O=C(O)[C@H](CCC(=O)[*:2])N[*:1]; Hydantoyl = NC(=O)NCC(=O)*; AEEA = NCCOCCOCC(=O)O; Me2Gly = CN(C)CC(=O)*

T1 sequence (P06213 28-746 isoform P06213-2 limits assumed): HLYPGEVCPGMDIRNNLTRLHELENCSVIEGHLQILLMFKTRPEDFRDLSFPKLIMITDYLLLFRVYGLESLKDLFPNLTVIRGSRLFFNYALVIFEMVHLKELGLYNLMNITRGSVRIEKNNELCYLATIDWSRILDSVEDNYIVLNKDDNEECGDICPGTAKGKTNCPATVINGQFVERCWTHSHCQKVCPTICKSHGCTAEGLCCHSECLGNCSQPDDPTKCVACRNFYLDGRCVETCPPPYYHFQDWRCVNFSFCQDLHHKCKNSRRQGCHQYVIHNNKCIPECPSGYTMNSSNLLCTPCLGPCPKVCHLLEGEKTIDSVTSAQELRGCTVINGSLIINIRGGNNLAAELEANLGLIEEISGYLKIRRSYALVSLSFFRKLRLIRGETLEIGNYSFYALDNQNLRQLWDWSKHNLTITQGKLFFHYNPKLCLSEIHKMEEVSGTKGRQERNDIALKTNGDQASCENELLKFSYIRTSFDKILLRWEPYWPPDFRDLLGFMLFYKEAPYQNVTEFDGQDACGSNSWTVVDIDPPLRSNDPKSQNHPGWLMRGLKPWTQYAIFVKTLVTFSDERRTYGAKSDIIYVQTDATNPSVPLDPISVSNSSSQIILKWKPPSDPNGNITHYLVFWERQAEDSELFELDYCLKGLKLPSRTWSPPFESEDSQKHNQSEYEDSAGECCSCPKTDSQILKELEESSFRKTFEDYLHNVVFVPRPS
T1 sequence (P06213 763-1382 partner limits assumed): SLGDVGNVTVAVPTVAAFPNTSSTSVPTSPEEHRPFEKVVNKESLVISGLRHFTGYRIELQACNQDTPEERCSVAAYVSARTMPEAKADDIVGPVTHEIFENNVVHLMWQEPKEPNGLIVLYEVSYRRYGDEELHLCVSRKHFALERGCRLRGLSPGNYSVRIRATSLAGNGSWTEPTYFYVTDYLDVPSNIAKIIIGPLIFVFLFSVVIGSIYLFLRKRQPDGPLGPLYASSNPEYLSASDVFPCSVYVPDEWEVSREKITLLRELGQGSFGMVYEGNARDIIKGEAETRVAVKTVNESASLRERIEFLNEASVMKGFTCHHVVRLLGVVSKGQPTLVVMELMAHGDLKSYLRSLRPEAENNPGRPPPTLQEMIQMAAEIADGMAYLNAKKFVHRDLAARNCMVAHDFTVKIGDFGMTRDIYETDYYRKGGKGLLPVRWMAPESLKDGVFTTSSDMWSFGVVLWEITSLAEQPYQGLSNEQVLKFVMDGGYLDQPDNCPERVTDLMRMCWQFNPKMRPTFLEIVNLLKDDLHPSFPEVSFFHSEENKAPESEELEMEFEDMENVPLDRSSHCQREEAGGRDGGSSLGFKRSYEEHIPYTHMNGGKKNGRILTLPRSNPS

For the substance “I: Me2Gly-VCQHLCGSHLVEALHLVCGERGFHYTPK([γGlu-C18 diacid]) / II: Me2Gly-IVEQCCTSCCSLEQLENYCN (disulfide I:2-II:9, I:6-II:6, I:18-II:19, II:5-II:10) [Example 8, A1(N^α,N^α-Dimethyl), A10C, A14E, B1G(N^α,N^α-dimethyl), B3C, B16H, B25H, B29K(N^εoctadecanedioyl-gGlu), desB30 Human Insulin]”, in series [1], the “Chemical degradation (%) (4 weeks 37° C.- 0 weeks 5° C.)” value (“Chemical degradation (%)” below) was 66.4% and the “HMWP Formation (%) (4 weeks 37° C.- 0 weeks 5° C.)” value (shortened to “HMWP Formation (%)”) was determined as 54.5%. Regarding “I: Me2Gly-VCQHLCGSHLVEALYLVCGERGFFYPK([AEEA-AEEA-γGlu-C18 diacid]) / II: Me2Gly-IVEQCCTSCCSLEQLENYCN (disulfide I:2-II:9, I:6-II:6, I:18-II:19, II:5-II:10) [Example 14, A1(N^α,N^α-Dimethyl), A10C, A14E, B1G(N^α,N^α-dimethyl), B3C, desB27, B29K(N^εoctadecanedioyl-gGlu-2×OEG), desB30 Human Insulin]”, the “HMWP Formation (%)” value in series [1] came out at 0.0%. “I: Me2Gly-VCQHLCGSHLVEALYLVCGERGFFYPK([γGlu-C18 diacid]) / II: Me2Gly-IVEQCCTSCCSLEQLENYCN (disulfide I:2-II:9, I:6-II:6, I:18-II:19, II:5-II:10) [Example 9, A1(N^α,N^α-Dimethyl), A10C, A14E, B1G(N^α,N^α-dimethyl), B3C, desB27, B29K(N^εoctadecanedioyl-gGlu), desB30 Human Insulin]”: in series [1], the “Chemical degradation (%)” value is listed as 5.7%.

Regarding “I: Me2Gly-VCQHLCGSHLVEALYLVCGERGFHYPK([AEEA-AEEA-γGlu-C18 diacid]) / II: Me2Gly-IVEQCCTSCCSLEQLENYCN (disulfide I:2-II:9, I:6-II:6, I:18-II:19, II:5-II:10) [Example 15, A1(N^α,N^α-Dimethyl), A10C, A14E, B1G(N^α,N^α-dimethyl), B3C, B25H, desB27, B29K(N^εoctadecanedioyl-gGlu-2×OEG), desB30 Human Insulin]”, in series [1], the “Chemical degradation (%)” value is 10.4% and the “HMWP Formation (%)” value is listed as 1.2%. For “I: Me2Gly-VCQHLCGSHLVEALYLVCGERGFHYPK([γGlu-C18 diacid]) / II: Me2Gly-IVEQCCTSCCSLEQLENYCN (disulfide I:2-II:9, I:6-II:6, I:18-II:19, II:5-II:10) [Example 7, A1(N^α,N^α-Dimethyl), A10C, A14E, B1G(N^α,N^α-dimethyl), B3C, B25H, desB27, B29K(N^εoctadecanedioyl-gGlu), desB30 Human Insulin]”, in that order: 0.6% and 0.4%. For “I: Me2Gly-VCQHLCGSHLVEALYLVCGERGFHYTPK([AEEA-AEEA-γGlu-C18 diacid]) / II: Me2Gly-IVEQCCTSCCSLEQLENYCN (disulfide I:2-II:9, I:6-II:6, I:18-II:19, II:5-II:10) [Example 16, A1(N^α,N^α-Dimethyl), A10C, A14E, B1G(N^α,N^α-dimethyl), B3C, B25H, B29K(N^εoctadecanedioyl-gGlu-2×OEG), desB30 Human Insulin]”, in that order: 58.0% and 42.7%.

For the substance “I: NMe2Phe-VCQHLCGSHLVEALHLVCGERGFHYTPK([AEEA-AEEA-γGlu-C18 diacid]) / II: Me2Gly-IVEQCCTSCCSLEQLENYCN (disulfide I:2-II:9, I:6-II:6, I:18-II:19, II:5-II:10) [Example 13, A1(N^α,N^α-Dimethyl), A10C, A14E, B1(N^α,N^α-dimethyl), B3C, B16H, B25H, B29K(N^εoctadecanedioyl-gGlu-2×OEG), desB30 Human Insulin]”, the “Chemical degradation (%)” value in series [1] is 9.8%. On to “I: NMe2Phe-VCQHLCGSHLVEALHLVCGERGFHYTPK([γGlu-C18 diacid]) / II: Me2Gly-IVEQCCTSCCSLEQLENYCN (disulfide I:2-II:9, I:6-II:6, I:18-II:19, II:5-II:10) [Example 4, A1(N^α,N^α-Dimethyl), A10C, A14E, B1(N^α,N^α-dimethyl), B3C, B16H, B25H, B29K(N^εoctadecanedioyl-gGlu), desB30 Human Insulin]”, for which, in series [1], the “Chemical degradation (%)” value was 8.7% and the “HMWP Formation (%)” value was −0.4%. Consider “I: NMe2Phe-VCQHLCGSHLVEALYLVCGERGFHYPK([γGlu-C20 diacid]) / II: Me2Gly-IVEQCCTSCCSLEQLENYCN (disulfide I:2-II:9, I:6-II:6, I:18-II:19, II:5-II:10) [Example 18, A1(N^α,N^α-Dimethyl), A10C, A14E, B1(N^α,N^α-dimethyl), B3C, B25H, desB27, B29K(N^εeicosanedioyl-gGlu), desB30 Human Insulin]”, for which the “Relative IR-A affinity (@ 0% HSA) (%)” value at human insulin receptor [2] is recorded as 0.72%. For the same substance, the “Hydrophobicity rel. to human insulin” value in series [3] was found to be 0.12. Further, at human insulin receptor [4], the “Relative IR-A affinity (@ […] HSA) (%)e” value turned out to be 0.02%. Moreover, in series [1], the “Chemical degradation (%)” value is recorded as 4.2% and the “HMWP Formation (%)” value amounted to 5.1%. Turning to “I: NMe2Phe-VCQHLCGSHLVEALYLVCGERGFHYTPK([AEEA-AEEA-γGlu-C18 diacid]) / II: Me2Gly-IVEQCCTSCCSLEQLENYCN (disulfide I:2-II:9, I:6-II:6, I:18-II:19, II:5-II:10) [Example 12, A1(N^α,N^α-Dimethyl), A10C, A14E, B1(N^α,N^α-dimethyl), B3C, B25H, B29K(N^εoctadecanedioyl-gGlu-2×OEG), desB30 Human Insulin]”, the “Hydrophobicity rel. to human insulin” value in series [3] is 0.077. As for “I: NMe2Phe-VCQHLCGSHLVEALYLVCGERGFHYTPK([γGlu-C18 diacid]) / II: Me2Gly-IVEQCCTSCCSLEQLENYCN (disulfide I:2-II:9, I:6-II:6, I:18-II:19, II:5-II:10) [Example 3, A1(N^α,N^α-Dimethyl), A10C, A14E, B1(N^α,N^α-dimethyl), B3C, B25H, B29K(N^εoctadecanedioyl-gGlu), desB30 Human Insulin]”, the “Hydrophobicity rel. to human insulin” value in series [3] was 0.065. The “Chemical degradation (%)” value in series [1] worked out at 3.4%. “I: NMe2Phe-VCQHLCGSHLVEALYLVCGERGFHYTPK([γGlu-C20 diacid]) / II: Me2Gly-IVEQCCTSCCSLEQLENYCN (disulfide I:2-II:9, I:6-II:6, I:18-II:19, II:5-II:10) [Example 19, A1(N^α,N^α-Dimethyl), A10C, A14E, B1(N^α,N^α-dimethyl), B3C, B25H, B29K(N^εeicosanedioyl-gGlu), desB30 Human Insulin]”: in series [1], the “Chemical degradation (%)” value was 11.7% and the “HMWP Formation (%)” value is recorded as 34.6%. Take “I: {Phe(Nα-CONH2)}-VCQHLCGSHLVEALYLVCGERGFFYPK([γGlu-C18 diacid]) / II: Hydantoyl-IVEQCCTSCCSLEQLENYCN (disulfide I:2-II:9, I:6-II:6, I:18-II:19, II:5-II:10) [Example 36, A1(N^α-Carbamoyl), A10C, A14E, B1(N^α-carbamoyl), B3C, desB27, B29K(N^εoctadecanedioyl-gGlu), desB30 Human Insulin]”: on human insulin receptor [2], the “Relative IR-A affinity (@ 0% HSA) (%)” value is recorded as 0.7%. Moreover, the “Relative IR-A affinity (@ […] HSA) (%)e” value on human insulin receptor [4] is on record as 0.01%.
